Results from US6967029.

How the values were obtained:
[1] = target: endogenous c-kit of COS-1 cells (cells transfected with V19.8 alone); assay: 1.6 nM human 125I-SCF^1-164 on membrane fractions of COS-1 cells transfected with V19.8 alone
[2] = target: human recombinant c-kit ligand binding plus transmembrane domains (hckit-LT1) expressed in COS-1 cells (human) (UniProt P10721); assay: 1.6 nM human 125I-SCF^1-164 on membrane fractions of COS-1 cells transfected with V19.8:hckit-LT1
[3] = target: endogenous c-kit of COS-1 cells (cells transfected with V19.8 alone); assay: 1.6 nM human 125I-SCF^1-164 + 320 nM unlabelled human SCF^1-164, membranes of COS-1 cells transfected with V19.8 alone
[4] = target: human recombinant c-kit ligand binding plus transmembrane domains (hckit-LT1) expressed in COS-1 cells (human) (UniProt P10721); assay: 1.6 nM human 125I-SCF^1-164 + 320 nM unlabelled human SCF^1-164, membranes of COS-1 cells transfected with V19.8:hckit-LT1
[5] = target: endogenous c-kit of COS-1 cells (cells transfected with V19.8 alone); assay: 1.6 nM rat 125I-SCF^1-164 on membrane fractions of COS-1 cells transfected with V19.8 alone
[6] = target: human recombinant c-kit ligand binding plus transmembrane domains (hckit-LT1) expressed in COS-1 cells (human) (UniProt P10721); assay: 1.6 nM rat 125I-SCF^1-164 on membrane fractions of COS-1 cells transfected with V19.8:hckit-LT1
[7] = target: endogenous c-kit of COS-1 cells (cells transfected with V19.8 alone); assay: 1.6 nM rat 125I-SCF^1-164 + 320 nM unlabelled rat SCF^1-164, membranes of COS-1 cells transfected with V19.8 alone
[8] = target: human recombinant c-kit ligand binding plus transmembrane domains (hckit-LT1) expressed in COS-1 cells (human) (UniProt P10721); assay: 1.6 nM rat 125I-SCF^1-164 + 320 nM unlabelled rat SCF^1-164, membranes of COS-1 cells transfected with V19.8:hckit-LT1

CPM Bound [1] [cpm] | CPM Bound [2] [cpm] | CPM Bound [3] [cpm] | CPM Bound [4] [cpm] | CPM Bound [5] [cpm] | CPM Bound [6] [cpm] | CPM Bound [7] [cpm] | CPM Bound [8] [cpm] | Substance
2160 | 59400 | 2150 | 2380 | – | – | – | – | human SCF^1-164 (radioiodinated; Examples 13 and 15) (from UniProt P21583 26-189) (ligand)
– | – | – | – | 1100 | 70000 | 550 | 1100 | rat SCF^1-164 (radioiodinated; Example 15) (from UniProt P21581 26-189) (ligand)
